Here are results for nine variants from IntAct's records for PubMed 22056771.

B1: Autophagy-related protein 8 (Saccharomyces cerevisiae), P38182 (parent)
chain: MKSTFKSEYPFEKRKAESERIADRFKNRIPVICEKAEKSDIPEIDKRKYLVPADLTVGQFVYVIRKRIMLPPEKAIFIFVNDTLPPTAALMSAIYQEHKDKDGFLYVTYSGENTFGR
partner: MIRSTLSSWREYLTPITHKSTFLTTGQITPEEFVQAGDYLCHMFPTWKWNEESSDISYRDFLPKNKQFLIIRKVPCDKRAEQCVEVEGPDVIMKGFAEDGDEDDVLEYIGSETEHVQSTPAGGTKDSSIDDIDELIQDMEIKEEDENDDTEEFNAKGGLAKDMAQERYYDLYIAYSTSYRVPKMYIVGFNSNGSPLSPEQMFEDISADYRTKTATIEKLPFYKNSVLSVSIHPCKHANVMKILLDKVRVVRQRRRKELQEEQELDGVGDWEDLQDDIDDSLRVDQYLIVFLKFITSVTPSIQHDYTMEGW
B2: Autophagy-related protein 8 (Saccharomyces cerevisiae), P38182 (parent)
chain: B1 chain
partner: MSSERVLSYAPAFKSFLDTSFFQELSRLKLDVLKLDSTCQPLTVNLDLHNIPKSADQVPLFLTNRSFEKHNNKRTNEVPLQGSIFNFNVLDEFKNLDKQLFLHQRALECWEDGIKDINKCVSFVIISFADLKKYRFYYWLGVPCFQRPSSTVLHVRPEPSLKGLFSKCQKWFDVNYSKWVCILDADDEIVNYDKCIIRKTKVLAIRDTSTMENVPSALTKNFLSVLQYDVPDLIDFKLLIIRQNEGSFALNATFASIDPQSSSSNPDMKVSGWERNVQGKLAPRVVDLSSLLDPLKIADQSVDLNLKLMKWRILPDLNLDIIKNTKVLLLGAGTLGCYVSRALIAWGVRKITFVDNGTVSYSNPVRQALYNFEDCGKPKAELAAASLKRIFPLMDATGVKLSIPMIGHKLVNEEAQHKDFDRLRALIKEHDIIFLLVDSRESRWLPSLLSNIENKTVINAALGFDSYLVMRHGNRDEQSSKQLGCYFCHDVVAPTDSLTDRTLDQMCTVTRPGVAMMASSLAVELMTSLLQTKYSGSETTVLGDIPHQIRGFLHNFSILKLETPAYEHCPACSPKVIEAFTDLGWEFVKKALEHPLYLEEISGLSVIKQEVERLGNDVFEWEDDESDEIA
B3: Ubiquitin-like modifier-activating enzyme ATG7 (Saccharomyces cerevisiae), P38862 (parent)
chain: B2 partner
partner: B1 chain

The first assay covers variants of B1. The conditions noted are these: with atg3_yeast ATG3, P40344.
On to MKSTFKSEYPFEKRKAESERIADRFKNRIPVICEKAEKSDIPEIDKRKYLVPADLTVGQFVKVIRKRIMLPPEKAIFIFVNDTLPPTAALMSAIYQEHKDKDGFLYVTYSGENTFGR, for which the “effect of a mutation on the interaction” value is “disrupting interaction”.

The variants in the next assay derive from B2. The conditions noted are these: with atg7_yeast ATG7, P38862.
For the variant MKSTFKSEYPFEKRKAESERIADRFKNRIPVICEKAEKSDIPEIDKRKYLVPADLTVGQFVAVIRARIMLPPEKAIFIFVNDTLPPTAALMSAIYQEHKDKDGFLYVTYSGENTFGR, the “effect of a mutation on the interaction” value is “disrupting interaction”.

As to MKSTFKSEYPFEKRKAESERIADRFKNRIPVICEKAEKSDIPEIDKRKYLVPADLTVGQFVKVIRKRIMLPPEKAIFIFVNDTLPPTAALMSAIYQEHKDKDGFLYVTYSGENTFGR, the “effect of a mutation on the interaction” value is listed as “disrupting interaction strength”.

Consider MKSTFKSEYPFEKRKAESERIADRFKNRIPVICEKAEKSDIPEIDKRKYLVPADLTVGQFVAVIRKRIMLPPEKAIFIFVNDTLPPTAALMSAIYQEHKDKDGFLYVTYSGENTFGR, for which the “effect of a mutation on the interaction” value is “disrupting interaction strength”.

Take MKSTFKSEYPFEKRKAESERIADRFKNRIPVICEKAEKSDIPEIDKRKYLVPADLTVGQFVYVIRARIMLPPEKAIFIFVNDTLPPTAALMSAIYQEHKDKDGFLYVTYSGENTFGR: the “effect of a mutation on the interaction” value is listed as “decreasing interaction strength”.

With MKSTFKSEYPFEKRKAESERIADRFKNRIPVICEKAEKSDIPEIDKRKYLVPADLTVGQFVYVIRERIMLPPEKAIFIFVNDTLPPTAALMSAIYQEHKDKDGFLYVTYSGENTFGR, the “effect of a mutation on the interaction” value is “decreasing interaction strength”.

Variants of B2 are the subject of a further assay. The conditions noted are these: with atg7_yeast ATG7, P38862. This is another data set of the same source.
As to MKSTFKSEYPFEKRKAESERIADRFKNRIPVICEKAEKSDIPEIDKRKYLVPADLTVGQFVKVIRKRIMLPPEKAIFIFVNDTLPPTAALMSAIYQEHKDKDGFLYVTYSGENTFGR, the “effect of a mutation on the interaction” value was “disrupting interaction”.

The variants in the next assay derive from B3. The conditions noted are these: with atg8_yeast ATG8, P38182.
As to E612A, the “effect of a mutation on the interaction” value was “decreasing interaction strength”.

On to E612Q, for which the “effect of a mutation on the interaction” value is “decreasing interaction strength”.

For the variant E612R, the “effect of a mutation on the interaction” value is “decreasing interaction strength”.
